± gives the standard deviation of the averaged measurements.
System: Saccharomyces cerevisiae
Assay: protein stability index of tFT-peptide fusion (C-terminal peptide) (PSI (0-1 scale)); higher = more stable (slower turnover)
Conditions: genetic background: wild type; temperature: 30 C
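Also: PSI is a weighted mean of sequencing reads over stability bins, variants kept only with over 10 reads, mCherry proximal and sfGFP distal, peptide attached via GGGS linker.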

Sequence	protein stability index
SSPSPALLFPAR	0.715 ± 0.036
IQKIKYKRKYIK	0.73 ± 0.027
GSRGGVAYGRVG	0.741 ± 0.04
PVICFTSYPDRQ	0.7 ± 0.098
PFIPPPRFPPPV	0.835 ± 0.074
ITSSPNVGKTTN	0.713 ± 0.024
EARLGGESSAWG	0.655 ± 0.053
VAWCYCSGDTGV	0.7 ± 0.035
PLSLICLLKSYL	0.708 ± 0.025
PLPDPPPTPSGT	0.682 ± 0.058
ISPGWLSRLWVR	0.629 ± 0.0083
KEEYSYQRVGEL	0.661 ± 0.015
GESGGVGGQCWR	0.74 ± 0.0082
LGGGGGGGVAGD	0.723 ± 0.069
RGGVFGTCGVGG	0.653 ± 0.035
PLPPPPHPLLLL	0.681 ± 0.024
SGVGSRDGVRGA	0.684 ± 0.048
PNPEKPPGAPGQ	0.63 ± 0.087
ESRARRRQGGKR	0.738 ± 0.015
LYIPQKRGLSLH	0.62 ± 0.021
APAFLSLVSFAS	0.673 ± 0.017
ISEGKTIIYCLW	0.523 ± 0.081
GSSPVWRVAGAG	0.721 ± 0.061
QLSTSGLTTTAW	0.707 ± 0.029
SDKDIYQRLSYE	0.643 ± 0.036

Sequence	protein stability index
DINNDQKCTLMK	0.71 ± 0.013
AGKYCCFMVFVV	0.649 ± 0.033
PPPSSPPSPVIR	0.694 ± 0.056
SPPPPYPSLFPL	0.677 ± 0.034
IRRSVVRCLFTE	0.707 ± 0.056
VPHLPATPPAPP	0.646 ± 0.037
PHAERASPDGLS	0.664 ± 0.063
ILFLGSLGCPGG	0.697 ± 0.019
ALTWVGEGLRGS	0.699 ± 0.027
VSVGEDGNRPTC	0.645 ± 0.071
KFLQRTPGHSSE	0.699 ± 0.048
FFVRCTEWLGED	0.6161 ± 0.0039
PPLPAPGPIFLP	0.652 ± 0.037
RCGGEWTGGVWR	0.845 ± 0.22
NFLVNGRASLKV	0.583 ± 0.016
DYLVRGPPRASG	0.629 ± 0.021
SKGQLRLNMCIL	0.662 ± 0.046
RPPPPSPAPTPP	0.723 ± 0.045
CRTGHCRLTSKM	0.708 ± 0.019
VYSAGRAVGLAG	0.673 ± 0.035
YYPLRIADQNGN	0.795 ± 0.054
SFACLLGRGWVD	0.719 ± 0.06
GARGGSGGGQPG	0.661 ± 0.019
LPVPPPPPLPET	0.702 ± 0.061
DAAFRMTRLVVR	0.6172 ± 0.0015

Sequence	protein stability index
NTSPTRLSCPVF	0.616 ± 0.11
RKEQKGKGKEGG	0.697 ± 0.024
AAREVSPGNVCH	0.731 ± 0.065
GFLCGFVGVFAD	0.56953 ± 0.00032
EGGGASELGAPN	0.567 ± 0.095
VANGGVIVRGRC	0.668 ± 0.012
LRAWAAPPPHGL	0.727 ± 0.076
KTGLMRGHEVAS	0.673 ± 0.03
PHCPPPPSLSPP	0.791 ± 0.094
PPPPPVSSPLVT	0.657 ± 0.048
SEVIIAISNKNH	0.5275 ± 0.0019
APDRGWAEGQCS	0.727 ± 0.018
TSGTPSRTHTLR	0.612 ± 0.025
EVGFPGRSWGAG	0.689 ± 0.07
GGLIWRHGGGRG	0.688 ± 0.023
PPLLPLPPRPLL	0.728 ± 0.044
KIRRIHRNVVKG	0.786 ± 0.055
LTPCPHATPEPP	0.615 ± 0.026
EVPGALISLHFY	0.654 ± 0.038
LLFFFTWCLCCF	0.569 ± 0.028
TAATLVYKQNQK	0.66 ± 0.12
TRRGPAGNKPRL	0.749 ± 0.0092
PHSPPSLSPTPP	0.685 ± 0.06
PIPSPAPLPPRP	0.675 ± 0.0073
CDCIAFISRSFS	0.675 ± 0.039

Sequence	protein stability index
PPAICSFLSPPF	0.655 ± 0.017
RPPPRPPHPPPL	0.6791 ± 0.0048
PIVLALPTFPPL	0.716 ± 0.048
GVRGGCDRGEVG	0.604 ± 0.046
SSRYVATANICR	0.69 ± 0.013
RPSLTPSPPPFP	0.64 ± 0.018
ADMLETFSVHLG	0.666 ± 0.011
VEWLGWFGISNK	0.76 ± 0.017
SPSPPSFRPSLH	0.712 ± 0.12
RTHPPADAWYLS	0.698 ± 0.035
PRVLVVSAVNTV	0.695 ± 0.02
QNQILNKKVIFK	0.681 ± 0.056
CEAWLTDEGLRD	0.742 ± 0.016
RGARGGSRGGGG	0.677 ± 0.086
PGCNLPLVPPRL	0.701 ± 0.018
HSPPPPFSPFSP	0.667 ± 0.024
TKSRKWEERENQ	0.682 ± 0.013
GTAFDGGELSEG	0.739 ± 0.045
VTTKMQVAGSRK	0.6377 ± 0.00065
KTKKNKITFKNK	0.759 ± 0.02
LLNTSPPRSVLH	0.653 ± 0.01
PLSPLSLSPVAP	0.62 ± 0.026
EFLVSVRPFASP	0.696 ± 0.032
STPPPPHSASRS	0.728 ± 0.059
LESSLPIDSERC	0.675 ± 0.055

Sequence	protein stability index
RPPYIALAPSDR	0.694 ± 0.0097
LPRPPPPSPPPP	0.7 ± 0.042
RSYSSTGAGDDK	0.721 ± 0.15
LRLSASRLLPPP	0.736 ± 0.015
RALCGWFAKRMI	0.637 ± 0.035
AKYPAQASTEPL	0.702 ± 0.028
PPPLFLSPFPPR	0.727 ± 0.015
RGHTTYCGPALI	0.697 ± 0.08
LSLAPPPLLHHL	0.664 ± 0.02
IPGDTLSTTTVT	0.67 ± 0.05
YESHVLDRMDGR	0.651 ± 0.026
FLLCLWIFFFGS	0.482 ± 0.028
RMSHFNTDSVHF	0.761 ± 0.019
LLSVPSLFCQFF	0.683 ± 0.057
RFYSKDLVHLST	0.6656 ± 0.0031
LLPLVLHQAFSP	0.729 ± 0.073
GPVHVRGVGFGF	0.73 ± 0.02
KLSSQAWMISEK	0.695 ± 0.055
LAPPLPMPPPLA	0.682 ± 0.02
RFYFSLSWSGFC	0.66 ± 0.077
RKKKKDKSAIKE	0.722 ± 0.018
IVTLPTNPYTPV	0.717 ± 0.046
LHSPPLPFTPSP	0.613 ± 0.041
AVGSAGRGRLGI	0.673 ± 0.0078
RVLRKIWEWKKG	0.685 ± 0.051

Sequence	protein stability index
LASPDPSPLVVP	0.678 ± 0.02
GGYATYWVGVRL	0.697 ± 0.036
CLSILRNVVPII	0.723 ± 0.08
GLPSSYLSALFR	0.708 ± 0.029
LKKEKDHKNRNR	0.67 ± 0.016
GHGGSKIYCLVD	0.637 ± 0.062
MKASRREDLCEP	0.62 ± 0.065
LAGVEMWVGLEV	0.61 ± 0.059
GRRHNPRTSSAQ	0.756 ± 0.075
RDDDSKDKRTEI	0.684 ± 0.065
RSGGVRCNDVRR	0.675 ± 0.05
RSQIHEILLYLF	0.492 ± 0.082
GGGCRASSLFPE	0.6644 ± 0.0058
GRGRFMPRDWYW	0.708 ± 0.028
SPRLSAPPPPPP	0.6766 ± 0.0046
GRRLVHKVDWSL	0.666 ± 0.043
LLQFYWRPCRGY	0.699 ± 0.013
PPRPPPSSPHLV	0.698 ± 0.023
VIDFAELGTVAH	0.7301 ± 0.005
VRRGRQHLRYGR	0.708 ± 0.045
PLQFSLADEFST	0.705 ± 0.02
